From the supplement of paper PMC11136658

Test system: peptide library, one residue held at a place counted from the Y acceptor
Assay: relative phosphorylation of the sub-library (ratio to the mean residue at this position); higher = residue favoured
Outline: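 In 384-well plates, purified recombinant kinases were incubated for 90 min with 50 μM ATP containing γ-32P-ATP and biotinylated Tyr-centred peptide libraries, each mixture fixing one residue at a single position between −5 and +5. After capture on streptavidin membranes and rinsing, peptides were quantified by phosphorimaging with ImageQuant. Per-position intensities were scaled to the sum of the 18 (Ser/Thr-free library: 16) randomized residues, then multiplied by that number.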

Sequence of PKMYT1, construct: Full length, human (Q99640 whole entry, looked up): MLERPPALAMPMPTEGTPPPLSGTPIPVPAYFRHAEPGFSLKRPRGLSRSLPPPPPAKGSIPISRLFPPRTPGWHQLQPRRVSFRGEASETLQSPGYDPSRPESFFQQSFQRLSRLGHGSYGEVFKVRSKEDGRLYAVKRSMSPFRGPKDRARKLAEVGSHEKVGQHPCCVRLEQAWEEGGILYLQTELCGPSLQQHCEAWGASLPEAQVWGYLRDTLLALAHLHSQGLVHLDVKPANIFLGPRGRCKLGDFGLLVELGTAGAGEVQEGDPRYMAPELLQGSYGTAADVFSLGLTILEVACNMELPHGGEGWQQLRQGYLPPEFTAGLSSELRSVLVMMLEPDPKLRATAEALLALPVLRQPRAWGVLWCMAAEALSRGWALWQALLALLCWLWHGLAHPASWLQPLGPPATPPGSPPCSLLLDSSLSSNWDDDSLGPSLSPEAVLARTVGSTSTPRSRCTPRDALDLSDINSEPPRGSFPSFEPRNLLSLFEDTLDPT

PKMYT1, construct: Full length, human (from UniProt Q99640)
relative phosphorylation
Conditions	at +1	at +2	at +3	at +4	at +5	at -1	at -2	at -3	at -4	at -5
A fixed	0.864	0.982	0.813	1.11	0.947	1.04	1.05	1.2	1.2	1.16
D fixed	0.69	0.754	0.728	0.889	0.933	0.756	0.814	0.784	0.792	0.741
E fixed	0.834	0.775	0.66	0.833	0.979	0.845	0.915	0.837	0.84	0.772
F fixed	0.794	1.12	1.55	1.01	1.03	0.72	1.01	1.09	1.06	1.18
G fixed	1.64	1.08	1.01	1.18	1.03	2.03	1.4	1.14	1.27	0.902
H fixed	0.813	0.945	0.911	1.11	1.13	0.945	1.14	1.06	1.01	1.15
I fixed	1.29	1.03	1.24	1.1	1	0.863	1.09	0.996	0.901	1.02
K fixed	1	1.32	0.831	1.09	1	1.02	0.978	0.943	1.03	1.2
L fixed	0.691	0.935	0.973	0.928	0.912	0.705	0.791	0.867	0.758	0.886
M fixed	0.837	0.935	0.988	0.966	0.936	0.751	0.897	0.883	0.875	0.908
N fixed	0.774	0.873	0.728	0.785	0.905	0.834	0.982	0.93	0.87	0.885
P fixed	1.35	1.14	1.09	0.925	1.02	1.45	1	1.11	1.14	0.842
Q fixed	0.865	0.821	0.667	0.787	0.853	0.828	0.777	0.867	0.928	0.855
R fixed	1.18	1.25	0.938	1.12	1.29	1.18	1.08	1.23	1.26	1.31
V fixed	1.39	1.07	0.967	0.998	0.918	1.01	1.09	1.04	0.936	0.928
W fixed	0.992	0.962	1.92	1.16	1.12	1.02	0.995	1.02	1.15	1.26
pThr fixed	0.868	0.729	0.691	0.838	0.635	1.04	0.974	0.888	0.912	0.719
pTyr fixed	0.831	0.87	0.7	0.883	0.789	1.83	0.974	1.05	0.841	0.849
